# In patent US11433099B2, “Immunotherapy with B*08 restricted peptides and combination of peptides against cancers and related methods” (Immatics Biotechnologies GmbH, priority 2018, dated 2022):
# Target: HLA-B*08:01 (Homo sapiens, UniProt P01889)
# Assay: MHC binding assay (UV-ligand exchange, beta2m ELISA)
# Conditions: MHC class I binding score; binding to HLA-B*08:01 ranged by peptide exchange yield (UV-ligand exchange, β2m ELISA)
# Description: Candidate peptides for T cell based therapies according to the present invention were further tested for their MHC binding capacity (affinity). The individual peptide-MHC complexes were produced by UV-ligand exchange, where a UV-sensitive peptide is cleaved upon UV-irradiation and exchanged with the peptide of interest as analyzed. Only peptide candidates that can effectively bind and stabilize the peptide-receptive MHC molecules prevent dissociation of the MHC complexes. To determine the yield of the exchange reaction, an ELISA was performed based on the detection of the light chain (β2m) of stabilized MHC complexes. The assay was performed as generally described in Rodenko et al. (Rodenko et al., 2006).
# 96 well MAXISorp plates (NUNC) were coated over night with 2 ug/ml streptavidin in PBS at room temperature, washed 4× and blocked for 1 h at 37° C. in 2% BSA containing blocking buffer. Refolded HLA-A*02:01/MLA-001 monomers served as standards, covering the range of 15-500 ng/ml. Peptide-MHC monomers of the UV-exchange reaction were diluted 100-fold in blocking buffer. Samples were incubated for 1 h at 37° C., washed four times, incubated with 2 ug/ml HRP conjugated anti-β2m for 1 h at 37° C., washed again and detected with TMB solution that is stopped with […]. Absorption was measured at 450 nm. Candidate peptides that show a high exchange yield (preferably higher than 50%, most preferred higher than 75%) are generally preferred for a generation and production of antibodies or fragments thereof, and/or T cell receptors or fragments thereof, as they show sufficient avidity to the MHC molecules and prevent dissociation of the MHC complexes.
row,Substance,Peptide exchange
1,23 (DIKKTNESL; listed as Homo sapiens) [compound 23],++ (20% = ++)
2,16 (NRKPRTPF; listed as Homo sapiens) [compound 16],++ (20% = ++)
3,160 (LPINNTHI; listed as Homo sapiens) [compound 160],++ (20% = ++)
4,180 (LAVPIFVAL; listed as Homo sapiens) [compound 180],++ (20% = ++)
5,131 (MSTKTTSI; listed as Homo sapiens) [compound 131],++ (20% = ++)
6,233 (DVKLVFVM; listed as Homo sapiens) [compound 233],++ (20% = ++)
7,250 (AARAPPQAL; listed as Homo sapiens) [compound 250],++ (20% = ++)
8,244 (HALPPYITVL; listed as Homo sapiens) [compound 244],++ (20% = ++)
9,92 (TLKAMVQAW; listed as Homo sapiens) [compound 92],+++ (50% = +++)
10,245 (GPRGPSSGHPL; listed as Homo sapiens) [compound 245],++ (20% = ++)
11,77 (LPKLPVPPL; listed as Homo sapiens) [compound 77],+++ (50% = +++)
12,133 (QATPRVRIL; listed as Homo sapiens) [compound 133],++ (20% = ++)
13,113 (MEKGLASL; listed as Homo sapiens) [compound 113],++ (20% = ++)
14,164 (LPAPIPTLL; listed as Homo sapiens) [compound 164],++ (20% = ++)
15,201 (TASAMQHVL; listed as Homo sapiens) [compound 201],+++ (50% = +++)
16,166 (VLSGGRILAL; listed as Homo sapiens) [compound 166],++ (20% = ++)
17,44 (HLTNRVLSL; listed as Homo sapiens) [compound 44],+++ (50% = +++)
18,229 (DTHTNTYYL; listed as Homo sapiens) [compound 229],++ (20% = ++)
19,51 (ERRVKVSSL; listed as Homo sapiens) [compound 51],+++ (50% = +++)
20,69 (ELARQRLL; listed as Homo sapiens) [compound 69],++ (20% = ++)
21,173 (YPLLKDPSL; listed as Homo sapiens) [compound 173],+++ (50% = +++)
22,196 (LDLRQKVL; listed as Homo sapiens) [compound 196],++ (20% = ++)
23,139 (YGRIGISLF; listed as Homo sapiens) [compound 139],++ (20% = ++)
24,147 (HAMDGASHL; listed as Homo sapiens) [compound 147],++ (20% = ++)
25,181 (SIRSSYSRF; listed as Homo sapiens) [compound 181],++ (20% = ++)

row,Substance,Peptide exchange
1,117 (VGPNGFKSL; listed as Homo sapiens) [compound 117],++ (20% = ++)
2,144 (IEQIRAVL; listed as Homo sapiens) [compound 144],++ (20% = ++)
3,238 (IPLAIARL; listed as Homo sapiens) [compound 238],+++ (50% = +++)
4,179 (LPLTEHEL; listed as Homo sapiens) [compound 179],+++ (50% = +++)
5,96 (RPAGVFEL; listed as Homo sapiens) [compound 96],++ (20% = ++)
6,223 (DVSARKLRV; listed as Homo sapiens) [compound 223],++ (20% = ++)
7,208 (LPPPQPLSL; listed as Homo sapiens) [compound 208],++ (20% = ++)
8,204 (MSPLLRSI; listed as Homo sapiens) [compound 204],++ (20% = ++)
9,219 (VRNPKILIL; listed as Homo sapiens) [compound 219],++ (20% = ++)
10,193 (LGGLRLTAL; listed as Homo sapiens) [compound 193],++ (20% = ++)
11,174 (HAMPSPRIL; listed as Homo sapiens) [compound 174],++ (20% = ++)
12,32 (NPYLKLVL; listed as Homo sapiens) [compound 32],++ (20% = ++)
13,207 (LRKRKSPE; listed as Homo sapiens) [compound 207],++ (20% = ++)
14,123 (SLLPFTLSF; listed as Homo sapiens) [compound 123],++ (20% = ++)
15,176 (YVIQRQSVL; listed as Homo sapiens) [compound 176],++ (20% = ++)
16,175 (MRFQQFLFA; listed as Homo sapiens) [compound 175],+ (0% = +)
17,215 (NPLIEIISI; listed as Homo sapiens) [compound 215],++ (20% = ++)
18,152 (FNKLVTEL; listed as Homo sapiens) [compound 152],++ (20% = ++)
19,7 (AARLRPAL; listed as Homo sapiens) [compound 7],++ (20% = ++)
20,17 (LLILKTVL; listed as Homo sapiens) [compound 17],+++ (50% = +++)
21,142 (YNLIYSMCL; listed as Homo sapiens) [compound 142],+++ (50% = +++)
22,146 (FQTAHFYL; listed as Homo sapiens) [compound 146],+++ (50% = +++)
23,189 (APDNVLLTL; listed as Homo sapiens) [compound 189],++ (20% = ++)
24,157 (QPYRFPQA; listed as Homo sapiens) [compound 157],++ (20% = ++)
25,236 (STLKKSLEI; listed as Homo sapiens) [compound 236],++ (20% = ++)

row,Substance,Peptide exchange
1,136 (KMFYRKDVM; listed as Homo sapiens) [compound 136],+++ (50% = +++)
2,128 (HFHNRHVF; listed as Homo sapiens) [compound 128],+++ (50% = +++)
3,240 (KVIDRKVEL; listed as Homo sapiens) [compound 240],++ (20% = ++)
4,132 (IPIQAHQI; listed as Homo sapiens) [compound 132],+++ (50% = +++)
5,169 (YELNNLHAL; listed as Homo sapiens) [compound 169],++ (20% = ++)
6,141 (AQLKLVAL; listed as Homo sapiens) [compound 141],++ (20% = ++)
7,140 (IAVDKPITL; listed as Homo sapiens) [compound 140],++ (20% = ++)
8,205 (YMQYGFLSM; listed as Homo sapiens) [compound 205],++ (20% = ++)
9,214 (DAPRHRLL; listed as Homo sapiens) [compound 214],++ (20% = ++)
10,177 (SVPVRSSPL; listed as Homo sapiens) [compound 177],++ (20% = ++)
11,209 (SRFGKFVQL; listed as Homo sapiens) [compound 209],++ (20% = ++)
12,98 (EPVNTNVVL; listed as Homo sapiens) [compound 98],++ (20% = ++)
13,185 (MELKTVKPI; listed as Homo sapiens) [compound 185],++ (20% = ++)
14,121 (YSQLSISL; listed as Homo sapiens) [compound 121],++ (20% = ++)
15,65 (NLLMRNVL; listed as Homo sapiens) [compound 65],++ (20% = ++)
16,111 (GAGLRITAPL; listed as Homo sapiens) [compound 111],++ (20% = ++)
17,231 (GEKLLRPSL; listed as Homo sapiens) [compound 231],++ (20% = ++)
18,118 (MAFVKHLL; listed as Homo sapiens) [compound 118],+++ (50% = +++)
19,72 (LPLAHHIQL; listed as Homo sapiens) [compound 72],+++ (50% = +++)
20,134 (DQRSRATL; listed as Homo sapiens) [compound 134],++ (20% = ++)
21,221 (SLKEELLSL; listed as Homo sapiens) [compound 221],+++ (50% = +++)
22,88 (MLLCLSLEL; listed as Homo sapiens) [compound 88],++ (20% = ++)
23,161 (DIVPPFSAF; listed as Homo sapiens) [compound 161],++ (20% = ++)
24,137 (VQWKPPAL; listed as Homo sapiens) [compound 137],++ (20% = ++)
25,102 (IMKKIRESY; listed as Homo sapiens) [compound 102],+++ (50% = +++)
